# Target: TMR-NTT (TMR-labeled Serinc3 NTT(Cys16) peptide, MBP removed) (UniProt Q13530)
# Experiment: fluorescence polarisation
# Conditions: read off a plot
row,Substance,response [mP]
1,complex of wild-type MBP-Nef with the α(1–398)/σ2 hemicomplex of AP2 (from UniProt Q90VU7;P18484;P53680) L112D,16
2,complex of wild-type MBP-Nef with the α(1–398)/σ2 hemicomplex of AP2 (from UniProt Q90VU7;P18484;P53680) F121D,20
3,complex of wild-type MBP-Nef with the α(1–398)/σ2 hemicomplex of AP2 (from UniProt Q90VU7;P18484;P53680) W57A; L58A,55
4,complex of wild-type MBP-Nef with the α(1–398)/σ2 hemicomplex of AP2 (from UniProt Q90VU7;P18484;P53680) L37D,37
5,complex of wild-type MBP-Nef with the α(1–398)/σ2 hemicomplex of AP2 (from UniProt Q90VU7;P18484;P53680) D123K,45

# Target: complex of wild-type MBP-Nef with the α(1–398)/σ2 hemicomplex of AP2 (HIV-1 (NL4.3) | not stated) (UniProt Q90VU7)
# Experiment: fluorescence polarisation; α(1–398)/σ2 (20 µM) and MBP-Nef WT or mutant (30 µM) mixed 30 min at room temperature, then 200 nM TMR-NTT, 15 μL, 1 or 2 h at room temperature; single concentration; control is probe only
# Conditions: not given
row,Substance,FP signal [mP]
1,"TMR-NTT (TMR-labeled Serinc3 NTT(Cys16) peptide, MBP removed) (from UniProt Q13530 1-39)",90
